The source of these data is patent publication US20150203579A1 (Regeneron, published 2015).

Some results are limits rather than exact numbers.

For assay [1], the target named is T1, recombinant human PD-1 expressed with a C-terminal myc-myc-hexahistidine tag (human).
T1 construct: monomeric; also called hPD-1-MMH; human PD-1-MMH
Nature of the assay: SPR, mAb captured, 37C.

Assay [2] addresses T2, recombinant cynomolgus monkey PD-1 expressed with a C-terminal myc-myc-hexahistidine tag (cynomolgus monkey (Macaca fascicularis)).
T2 construct: monomeric; also called MfPD-1-MMH
T2 chain: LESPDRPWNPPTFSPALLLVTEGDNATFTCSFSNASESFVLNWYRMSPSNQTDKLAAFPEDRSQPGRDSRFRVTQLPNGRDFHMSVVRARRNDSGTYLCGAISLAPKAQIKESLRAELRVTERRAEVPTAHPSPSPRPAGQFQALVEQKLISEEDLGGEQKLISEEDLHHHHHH
Nature of the assay: SPR, mAb captured, 25C. Background: In SPR one partner is held on a chip, and binding of the other changes the refractive index at the surface.

The target of assay [3] is T3, human PD-1 dimer (human PD-1-mFc or human PD-1-hFc) (human, UniProt Q15116 25-170).
T3 construct: also called hPD-1-mFc; hPD1-hFc
T3 sequence (Q15116 25-170 C93S): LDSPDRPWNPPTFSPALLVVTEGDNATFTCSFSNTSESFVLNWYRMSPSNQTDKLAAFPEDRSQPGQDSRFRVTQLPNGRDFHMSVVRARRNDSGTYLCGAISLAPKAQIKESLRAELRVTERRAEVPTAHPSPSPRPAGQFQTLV
Nature of the assay: SPR, mAb captured, 37C.

Assay [4] concerns the target T3, human PD-1 dimer (human PD-1-mFc or …). As to the kind of experiment: SPR, mAb captured, 25C.
Assay [5] addresses T2, recombinant cynomolgus monkey PD-1 …. Nature of the assay: SPR, mAb captured, 37C.

B1: H4xH9145P2 (antibody, V domains shown)
VH: QVQLVESGGGVVQPGRSLRLSCSASGFTFSAYAMHWVRQAPGKGLEWVAAISYGGSDKYYADSVKGRFTISRDNSKNTLYLQMNSLRTDDTAVYYCAKSAHWNFFFDYWGQGTLVTVSS
VL: not shown
notes: Human IgG4 Fc with 2 or more amino acid changes (H4xH)
Usually Kd stands for the free concentration of one partner at which half of the binding sites on the other are occupied at equilibrium, for simple one-to-one binding. The term koff denotes the first-order rate constant of dissociation. The term kon denotes the second-order rate constant of association. One may read the t½ as the time needed for the level to fall by half in the phase considered. With B1, the Kd in assay [1] was 94 nM; in assay [2], 43.1 nM; in assay [3], 3.58 nM; in assay [4], 2.4 nM; in assay [5], 83.7 nM. For the same molecule, the dissociation rate constant (koff) in assay [1] was determined as 0.0123 s⁻¹; in assay [2], 0.00124 s⁻¹; in assay [3] it was 0.000571 s⁻¹; in assay [4] it was 0.000158 s⁻¹; in assay [5], 0.0143 s⁻¹. Also, the kon in assay [1] amounted to 131000 M⁻¹ s⁻¹; in assay [2] it was 28600 M⁻¹ s⁻¹; in assay [3], 160000 M⁻¹ s⁻¹; in assay [4], 65800 M⁻¹ s⁻¹; in assay [5] it was 171000 M⁻¹ s⁻¹. The t½ worked out at 0.9 min in assay [1]; 9.3 min in assay [2]; 20 min in assay [3]; 73 min in assay [4]; 0.8 min in assay [5].

B2: H4xH9135P2 (antibody, V domains shown)
VH: EVQLVESGGSVVRPGGSLRLSCVVSGFTFEDYGLSWVRQIPGKGLEWVSGISWTGGNTGYADSVKGRFTISRDNAKNSLYLQMNSLRAEDTALYHCTRDRQWLMQWYFDYWGQGTLVTVSS
VL: not shown
notes: as for B1
B2: the dissociation constant (Kd) in assay [1] came to 26.6 nM; in assay [2], 10.6 nM; in assay [3] it was 2.27 nM; in assay [4], 0.651 nM; in assay [5] it was 28.9 nM. For the same molecule, the koff in assay [1] came out at 0.0111 s⁻¹; in assay [2] it was 0.00131 s⁻¹; in assay [3] it was 0.000702 s⁻¹; in assay [4], 0.000138 s⁻¹; in assay [5], 0.0134 s⁻¹. In addition, the on-rate constant (kon) in assay [1] came to 418000 M⁻¹ s⁻¹; in assay [2], 124000 M⁻¹ s⁻¹; in assay [3] it was 310000 M⁻¹ s⁻¹; in assay [4], 212000 M⁻¹ s⁻¹; in assay [5] it was 462000 M⁻¹ s⁻¹. The t½ in assay [1] amounted to 1 min; in assay [2], 8.8 min; in assay [3] it was 16 min; in assay [4], 84 min; in assay [5] it was 0.9 min.

B3: H4H7795N2 (antibody, human IgG4 S228P, kappa, V domains shown)
VH: EVQVVESGGGLVEPGRSLRLSCKASGFTFDDYAMHWVRQTPGKALEWVSGISWSGNNIGYADSVKGRFTISKDDAKNSLYLQMNSLRPEDTALYYCTKDISITGTLDAFDVWGQGTMVTVSS
VL: DIQMTQSPISVSASVGDRVTITCRASQGISNWLAWYQQKPGIAPKLLIYSASSLQSGVPSRFRGSGSGTDFTLTIGSLQPEDFATYYCQQAHSFPLTFGGGTKVEIKR
Regarding B3, the Kd in assay [1] was determined as 104 nM; in assay [2], 22.4 nM; in assay [3], 1.65 nM; in assay [4], 0.615 nM; in assay [5] it was 88.3 nM. Further, the off-rate (koff) turned out to be 0.00664 s⁻¹ in assay [1]; 0.00148 s⁻¹ in assay [2]; 0.000264 s⁻¹ in assay [3]; 9.25e-05 s⁻¹ in assay [4]; 0.00689 s⁻¹ in assay [5]. Moreover, the kon in assay [1] is 64100 M⁻¹ s⁻¹; in assay [2], 65900 M⁻¹ s⁻¹; in assay [3], 160000 M⁻¹ s⁻¹; in assay [4], 150000 M⁻¹ s⁻¹; in assay [5] it was 78000 M⁻¹ s⁻¹. Further, the t½ is 1.7 min in assay [1]; 8 min in assay [2]; 44 min in assay [3]; 125 min in assay [4]; 1.7 min in assay [5].

B4: H4xH9120P2 (antibody, V domains shown)
VH: QVQLVQSGAEVKRPGASVKVSCKASGYTFTSFYMYWVRQAPGQGLEWMGIINPSDGSTSNAQKFQGRVTMTRDTSTSTVYMELSSLRSEDTAVYYCARRVAGDIFDIWGQGTMVTVSS
VL: not shown
notes: as for B1
For the molecule B4, the Kd in assay [1] was found to be 102 nM; in assay [2], 34.1 nM; in assay [3], 5.96 nM; in assay [4], 1.82 nM; in assay [5], 107 nM. Besides, the koff in assay [1] stood at 0.00701 s⁻¹; in assay [2], 0.00108 s⁻¹; in assay [3], 0.000482 s⁻¹; in assay [4], 0.000119 s⁻¹; in assay [5], 0.00748 s⁻¹. Further, the on-rate constant (kon) in assay [1] came out at 68800 M⁻¹ s⁻¹; in assay [2] it was 31700 M⁻¹ s⁻¹; in assay [3], 80800 M⁻¹ s⁻¹; in assay [4], 65200 M⁻¹ s⁻¹; in assay [5], 69800 M⁻¹ s⁻¹. Moreover, the t½ in assay [1] is 1.6 min; in assay [2] it was 11 min; in assay [3], 24 min; in assay [4], 97 min; in assay [5], 1.5 min.

B5: H4xH9128P2 (antibody, V domains shown)
VH: QVQLQESGPGLVKPSETLSLTCTVSGGSISSYHWNWIRQSPGKGLEWIGYIYYIGSTDYNPSLESRVTISVDTSKNQFSLKLSSVTAADTAVYYCARVPVGATGASDVWGQGTMVTVSS
VL: not shown
notes: as for B1
Take B5: the Kd in assay [1] worked out at 42 nM; in assay [2] it was 17.7 nM; in assay [3], 3.68 nM; in assay [4], 1.59 nM; in assay [5], 46.1 nM. In addition, the koff turned out to be 0.00436 s⁻¹ in assay [1]; 0.000649 s⁻¹ in assay [2]; 0.000686 s⁻¹ in assay [3]; 0.000133 s⁻¹ in assay [4]; 0.00418 s⁻¹ in assay [5]. Moreover, the association rate constant (kon) worked out at 104000 M⁻¹ s⁻¹ in assay [1]; 36800 M⁻¹ s⁻¹ in assay [2]; 186000 M⁻¹ s⁻¹ in assay [3]; 83700 M⁻¹ s⁻¹ in assay [4]; 90600 M⁻¹ s⁻¹ in assay [5]. In addition, the t½ in assay [1] was determined as 2.6 min; in assay [2], 18 min; in assay [3], 17 min; in assay [4], 87 min; in assay [5], 2.8 min.

B6: H4xH8999P (antibody, V domains shown)
VH: QLQLQESGPGLVQPSETLSLTCTVSGDSISSTAYHWDWIRQPPGKGLEWIGTITYNGNTYFNPSLKSRVTISVDTSKNQFSLKLLSMTAAETAVFYCARHLGYNSDFFPFDFWGQGTLVTVSS
VL: not shown
notes: as for B1
As for B6, the Kd in assay [1] amounted to 15.7 nM; in assay [2], 3.09 nM; in assay [3], 0.596 nM; in assay [4], 0.217 nM; in assay [5], 9.41 nM. Besides, the t½ in assay [1] came out at 1.2 min; in assay [2], 8.7 min; in assay [3], 26 min; in assay [4], 96 min; in assay [5], 1.2 min.

B7: H4xH9008P (antibody, V domains shown)
VH: EVQLVESGGGLVRPGGSLRLSCAASGFTFSTYAMAWVRQTPGKGLEGVSAIGGSGDSTYYVDSVKGRFTISRDNSKSTLFLQMNSLRAEDTAVYYCVKVRNYDGSFDIWGQGTMVTVSS
VL: not shown
notes: as for B1
Turning to B7, the Kd in assay [1] was 62.6 nM; in assay [2], 23.8 nM; in assay [3] it was ≤ 0.181 nM; in assay [4], 0.796 nM; in assay [5], 23.5 nM. The t½ in assay [1] is 1.4 min; in assay [2] it was 4.6 min; in assay [3] it was ≥ 1160 min; in assay [4] it was 412 min; in assay [5] it was 0.8 min.

B8: H4H7798N (antibody, human IgG4 S228P, kappa, V domains shown)
VH: EVQLLESGGVLVQPGGSLRLSCAASGFTFSNFGMTWVRQAPGKGLEWVSGISGGGRDTYFADSVKGRFTISRDNSKNTLYLQMNSLKGEDTAVYYCVKWGNIYFDYWGQGTLVTVSS
VL: DIQMTQSPSSLSASVGDSITITCRASLSINTFLNWYQQKPGKAPNLLIYAASSLHGGVPSRFSGSGSGTDFTLTIRTLQPEDFATYYCQQSSNTPFTFGPGTVVDFRR
On to B8, for which the Kd in assay [1] was 7.48 nM; in assay [2], 3.86 nM; in assay [3], 0.175 nM; in assay [4] it was 0.122 nM; in assay [5], 10.5 nM. Besides, the off-rate constant (koff) in assay [1] was 0.0017 s⁻¹; in assay [2], 0.000551 s⁻¹; in assay [3] it was 0.000115 s⁻¹; in assay [4] it was 5.4e-05 s⁻¹; in assay [5], 0.00223 s⁻¹. The on-rate constant (kon) in assay [1] was 227000 M⁻¹ s⁻¹; in assay [2], 143000 M⁻¹ s⁻¹; in assay [3] it was 660000 M⁻¹ s⁻¹; in assay [4], 441000 M⁻¹ s⁻¹; in assay [5], 213000 M⁻¹ s⁻¹. In addition, the t½ in assay [1] turned out to be 7 min; in assay [2] it was 21 min; in assay [3] it was 100 min; in assay [4], 214 min; in assay [5], 5 min.
